Measured values taken from US20130225488A1 (CADILA HEALTHCARE, published 2013).
Where no end group is shown, it is not given here. [ ]: non-standard residue; d: D form. αMePhe(2-F) = C[C@](N)(Cc1ccccc1F)C(=O)O

Columns and labels:
Human glucagon receptor = Human glucagon receptor (human, UniProt P47871 26-477); assay: cell-based or functional assay
Human GLP-1 receptor = Human GLP-1 receptor (human, UniProt P43220 24-463); assay: cell-based or functional assay
Human GLP-1 receptor, sequence (P43220 24-463): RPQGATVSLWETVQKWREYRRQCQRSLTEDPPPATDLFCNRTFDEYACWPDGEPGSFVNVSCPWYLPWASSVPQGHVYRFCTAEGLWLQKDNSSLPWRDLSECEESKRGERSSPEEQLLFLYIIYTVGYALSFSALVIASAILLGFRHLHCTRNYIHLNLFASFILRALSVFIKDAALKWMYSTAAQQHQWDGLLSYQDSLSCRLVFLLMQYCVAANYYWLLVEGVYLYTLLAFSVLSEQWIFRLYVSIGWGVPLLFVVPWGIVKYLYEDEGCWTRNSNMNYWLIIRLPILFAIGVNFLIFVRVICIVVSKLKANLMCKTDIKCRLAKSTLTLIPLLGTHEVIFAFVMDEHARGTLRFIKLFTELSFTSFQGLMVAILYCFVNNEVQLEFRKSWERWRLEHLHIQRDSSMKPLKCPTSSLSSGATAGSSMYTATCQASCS

Binder | cAMP production with saturated glucagon peptide; test compound 1 nM (Human glucagon receptor) [pmol/ml/µg prt] | cAMP production with saturated glucagon peptide; test compound 10 nM (Human glucagon receptor) [pmol/ml/µg prt] | cAMP production with saturated glucagon peptide; test compound 100 nM (Human glucagon receptor) [pmol/ml/µg prt] | cAMP production with saturated glucagon peptide; test compound 10 µM (Human glucagon receptor) [pmol/ml/µg prt] | cAMP production with saturated glucagon peptide; test compound '1 nM' (Human glucagon receptor) [pmol/ml/µg prt] | cAMP release, % activity with respect to control; test compound 1 nM (Human GLP-1 receptor) [%] | cAMP release, % activity with respect to control; test compound 10 nM (Human GLP-1 receptor) [%] | cAMP release, % activity with respect to control; test compound 100 nM (Human GLP-1 receptor) [%] | cAMP release, % activity with respect to control; test compound 1 µM (Human GLP-1 receptor) [%] | cAMP release, % activity with respect to control; test compound 10 µM (Human GLP-1 receptor) [%]
HSQGTXTSDXX (α-Me-2F-Phe at 6; Bip(OMe) at 10; Bip(2F) at 11) [Seq. ID. No. 23: HSQGT-(α-Me-2F-Phe)-TSD-Bip(OMe)-Bip(2F)] | 4 | 2 | 2 | 0 | 0 | 46 | 85 | 90 | 99 | 99
HSQGTXTSDXX (α-Me-2F-Phe at 6; Bip(OMe) at 10; Bip(2CF3) at 11) [Seq. ID. No. 24: HSQGT-(α-Me-2F-Phe)-TSD-Bip(OMe)-Bip(2CF3)] | 4 | 2 | 0 | 0 | 0 | 41 | 82 | 87 | 95 | 98
HAQGT[αMePhe(2-F)]TSD[Bip(OMe)][Bip(2Me)] [Seq. ID. No. 25: HAQGT-(α-Me-2F-Phe)-TSD-Bip(OMe)-Bip(2Me)] | 18 | 16 | 12 | 6 | 8 | 38 | 77 | 85 | 94 | 97
HAQGT[αMePhe(2-F)]TSD[Bip(OMe)][Bip(2F)] [Seq. ID. No. 27: HAQGT-(α-Me-2F-Phe)-TSD-Bip(OMe)-Bip(2F)] | 14 | 11 | 7 | 0 | 3 | 82 | 87 | 92 | 99 | 99
HAQGT[αMePhe(2-F)]TSD[Bip(OMe)][Bip(2CF3)] [Seq. ID. No. 28: HAQGT-(α-Me-2F-Phe)-TSD-Bip(OMe)-Bip(2CF3)] | 4 | 3 | 0 | 0 | 0 | 55 | 88 | 92 | 99 | 99
HXQGTXTSDXX (Aib at 2; α-Me-2F-Phe at 6; Bip(OMe) at 10; Bip(2Me) at 11) [Seq. ID. No. 29: H-Aib-QGT-(α-Me-2F-Phe)-TSD-Bip(OMe)-Bip(2Me)] | 10 | 8 | 6 | 1 | 4 | 99 | 99 | 99 | 99 | 99
HXQGTXTSDXX (Aib at 2; α-Me-2F-Phe at 6; Bip(OMe) at 10; Bip(Pyr) at 11) [Seq. ID. No. 30: H-Aib-QGT-(α-Me-2F-Phe)-TSD-Bip(OMe)-Bip(Pyr)] | 9 | 6 | 5 | 0 | 3 | 93 | 99 | 99 | 99 | 99
HXQGTXTSDXX (Aib at 2; α-Me-2F-Phe at 6; Bip(OMe) at 10; Bip(2F) at 11) [Seq. ID. No. 31: H-Aib-QGT-(α-Me-2F-Phe)-TSD-Bip(OMe)-Bip(2F)] | 6 | 5 | 2 | 0 | 0 | 93 | 99 | 99 | 99 | 99
HXQGTXTSDXX (Aib at 2; α-Me-2F-Phe at 6; Bip(OMe) at 10; Bip(2CF3) at 11; C-terminal amide (CONH2)) [Seq. ID. No. 32: H-Aib-QGT-(α-Me-2F-Phe)-TSD-Bip(OMe)-Bip(2CF3)] | 4 | 2 | 0 | 0 | 0 | 99 | 99 | 99 | 99 | 99
HXQGTXTSDXX (ACP at 2; α-Me-2F-Phe at 6; Bip(OMe) at 10; Bip(2Me) at 11) [Seq. ID. No. 33: H-(ACP)-QGT-(α-Me-2F-Phe)-TSD-Bip(OMe)-Bip(2Me)] | 0 | 0 | 0 | 0 | 0 | 99 | 99 | 99 | 99 | 99
HSQGTFTSD[Bip(OMe)][Bip(2Me)]-NH2 [Seq. ID. No. 5: HSQGTFTSD-Bip(OMe)-Bip(2Me)] | 20 | 18 | 16 | 12 | 14 | 38 | 78 | 86 | 95 | 98
